According to patent US20220175781A1, “CD40L COMPOSITIONS AND METHODS FOR TUNABLE REGULATION” (Obsidian Therapeutics, Inc., priority 2019, published 2022):
Several values for one entry are separate records, joined by “and”; a condition that tells them apart may be missing. Equal values may be shown once.

Key:
[1] = tested on: T cells (CD4 and CD8 positive); test: CD40L MFI in vitro in CD4 and CD8 positive T cells, 10 μM TMP; assay type: cell-based; details: constitutive, ligand not given
Experimental: T cells were transduced with OT-001662 and then treated with 10 μM TMP on day 4. CD40L expression was analyzed by FACS both in the CD4 and CD8 positive T cell populations.

T cells = test: % CD40L positive cells in vivo, transduced T cells in NSG mice dosed with TMP; design: species or system NSG female mice; details: constitutive construct
Experimental: Based on the in vitro data, regulatability of CD40L constructs in vivo was tested. 10-week old NSG female mice were injected with T cells transduced with one of the following constructs empty vector, OT-001661, and OT-001662 (day 0). On day 1, mice were pre-bled prior to dose with ligand. On day 2, mice were dosed every 4 hours with TMP at 500 mg/kg body weight of the mouse or vehicle control. Two hours after every dose, blood was collected from the mice to measure CD40L levels. On day 3, i.e. 24 hours after the first dose, mice were terminally bled for analysis. The values in bold represent the average values for each bleed.

Nalm6-luc = Nalm6-luc tumor model, Bioluminescence Intensity (BLI); assay type: in vivo, mice; details: CD40L only T cells, no CAR+ number
Experimental: Increased expression of CD40L on CD19 positive CART cells may increase the efficacy of CAR+ T cells in vivo. To test this, 8-week old mice were injected with Nalm6-luc (1 million per mouse). On day 6, Nalm6 tumor burden was measured and mice were grouped to ensure that all groups had similar tumor sizes. Body weight and Bioluminescence Intensity (BLI) were measured twice a week. Blood and plasma were also collected for cytokine analysis, CD40L and IL12.

[2] = tested on: T cells co-cultured with monocyte derived dendritic cells (mDC); test: CD40L levels in T cells in mDC co-culture (FACS); assay type: cell-based; details: mDC co-culture 2 days
Text: In order to engage dendritic cells in an immune response, dendritic cells must be converted to a functional state by an antigen-specific CD4+ helper T cell. Activation of the dendritic cells may be followed by the activation of CD8+ T cells by the dendritic cells, a process referred to as dendritic cell licensing. Engagement of the CD40L expressed on the CD4+ cells with the CD40 on the dendritic cells can result in (i) dendritic cell stimulation-measured by expression of co-stimulatory and MHC molecules (ii) proinflammatory cytokine release (e.g. IL12, TNFα and INFγ) (iii) epitope spreading. To measure the effect of CD40L expression that is tuned by the biocircuits of the present disclosure, CD4+ T cells or Jurkat cells expressing any of the CD40L constructs described herein were co-cultured with dendritic cells.
Dendritic cell function in response to co-culture with T cells expressing CD40L was evaluated in the presence of ligand or corresponding vehicle control. Monocyte derived dendritic cells (mDC) (CD14+) were isolated from fresh blood and cultured for 5 days with IL-4 (7.5 ng/mL) and GM-CSF (20 ng/mL). The mDCs were frozen down after the 5 day culture. T cells were transduced with OT-001662 and expanded for 9 days before being frozen down. mDCs and T cells were thawed and co-cultured 1:10 DC: T cell ratio (i.e. 5×10^4 DCs: 5×10^5 T cells). mDC and T cells were co-cultured for 2 days before cells were collected for flow cytometry and supernatants were collected for cytokine analysis. For evaluation of regulated constructs, ligand (various doses of TMP) was added at the time initiating the co-culture and was kept in the co-culture for 2 days. Cytokines were analyzed by MSD after a single freeze thaw cycle. All cells were cultured in complete RPMI with 10% FBS during the course of the experiment. SR indicates stabilization ratio.

Jurkat cells = test: In vivo CD40L regulation in Jurkat cells harvested from bone marrow of NSG mice; details: constitutive construct, Jurkat cells from bone marrow, day 16
Text: Jurkat cells stably expressing OT-001661, OT-002034 were intravenously infused into 8-week old NSG mice (20 million cells per mouse). Starting by day 15, mice were orally dosed according to the study design shown in Table 42 and Jurkat cells were harvested on day 16 from the bone marrow and analyzed by FACS. In Tables 41 and 42, TMP refers to Trimethoprim and all dosing is relative to “0 hr” time point on day 16. The results are shown in Table 43 and Table 44 where “EV” refers to empty vector control.

B1: OT-001661: constitutively expressed full length CD40L construct (protein)
chain: MHMIETYNQTSPRSAATGLPISMKIFMYLLTVFLITQMIGSALFAVYLHRRLDKIEDERNLHEDFVFMKTIQRCNTGERSLSLLNCEEIKSQFEGFVKDIMLNKEETKKENSFEMQKGDQNPQIAAHVISEASSKTTSVLQWAEKGYYTMSNNLVTLENGKQLTVKRQGLYYIYAQVTFCSNREASSQAPFIASLCLKSPGRFERILLRAANTHSSAKPCGQQSIHLGGVFELQPGASVFVNVTDPSQVSHGTGFTSFGLLKL
With B1 the “CD40L MFI in vitro” value ([1]; CD4+) was 24489, the “CD40L MFI in vitro” value ([1]; CD8+) was 14352 and the “% CD40L positive cells in vivo” value (T cells; 0 hours, average) was 90.1%. For the same molecule, the “% CD40L positive cells in vivo” value (T cells; 0 hours, individual values) was 80.9% and 87.1% and 84.4% and 107.8%, the “% CD40L positive cells in vivo” value (T cells; 2 hours, average) was 62.3% and the “% CD40L positive cells in vivo” value (T cells; 2 hours, individual values) was 85.6% and 67.4% and 33.3% and 62.7%. The “% CD40L positive cells in vivo” value (T cells; 24 hours, average) was 55.8%, the “% CD40L positive cells in vivo” value (T cells; 24 hours, individual values) was 53.5% and 66.7% and 61.0% and 41.9% and the “Average BLI values” (Nalm6-luc; Day 6 (before T cell injection on day 7)) was 2.04E+06. For the same molecule, the “Average BLI values” (Nalm6-luc; Day 13) was 2.69E+08, the “Average BLI values” (Nalm6-luc; Day 20) was 2.52E+09 and the “Average BLI values” (Nalm6-luc; Day 25) was 5.99E+09. For the same molecule, the “Average BLI values” (Nalm6-luc; Day 28) was 1.04E+10, the “% CD40L+” value ([2]; CD4+, DMSO) was 68.1% and the “CD40L MFI” value ([2]; CD4+, DMSO) was 579. The “% CD40L+” value ([2]; CD4+, TMP) was 68.3%, the “CD40L MFI” value ([2]; CD4+, TMP) was 580 and the “% CD40L+” value ([2]; CD8+, DMSO) was 62.2%. For the same molecule, the “CD40L MFI” value ([2]; CD8+, DMSO) was 495, the “% CD40L+” value ([2]; CD8+, TMP) was 62.3% and the “CD40L MFI” value ([2]; CD8+, TMP) was 499. The “CD40L MFI values” (Jurkat cells; Average) was 586.5, the “Percent CD40L positive cells” value (Jurkat cells; Average) was 58.9% and the “CD40L MFI values” (Jurkat cells; individual mice) was 507 and 572 and 660 and 607. The “Percent CD40L positive cells” value (Jurkat cells; individual mice) was 52.5% and 57.5% and 64.2% and 61.4%.
